Results on 2 molecules are retold here after US20250361296A1.

As usually defined, the Kd is the equilibrium constant for the complex coming apart. As a reminder, the koff is a measure of how fast the partners let go of each other. Usually kon stands for a measure of how fast the partners come together.

The target in assay [1] is T1, His-tagged monkey SIGLEC15 protein (fasSIGLEC15-His, ACROBiosystems Inc., Cat #: SG5-C52H6) (monkey).
T1 sequence: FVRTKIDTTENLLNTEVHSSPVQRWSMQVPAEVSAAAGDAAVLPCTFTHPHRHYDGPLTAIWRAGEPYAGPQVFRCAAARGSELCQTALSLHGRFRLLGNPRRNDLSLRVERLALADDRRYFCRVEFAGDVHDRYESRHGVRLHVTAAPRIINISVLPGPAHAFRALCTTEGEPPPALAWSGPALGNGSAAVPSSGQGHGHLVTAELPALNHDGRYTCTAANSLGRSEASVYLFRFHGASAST
The assay can be described thus: SPR (Biacore 8K), antibody captured on Protein A chip, His-tagged SIGLEC15 as analyte. (In general: Surface plasmon resonance follows binding to a sensor surface in real time, without labels.)

Assay [2] addresses Macaca fascicularis (crab-eating macaque) SIGLEC15 on CHO-S-fasSIGLEC15 cells (Macaca fascicularis (crab-eating macaque)). The assay can be described thus: flow cytometry, CHO-S cells expressing the target.

B1: anti-SIGLEC15 antibody 10C9 (antibody, human IgG1, V domains shown)
VH: QVQLVQSGAEVKKPGATVKVSCKASGYTFTNYGFSWVRQAPGQGLEWMGWINTYNDNTNYAQKFQGRVTMTTDTSTSTAYMELRSLRSDDTAVYYCARDGLWFGELPHYFDYWGQGTLVTVSS
VL: DIQLTQSPLSSPVTLGQPASISCRSSQSLVNSDGETFLSWLQQRPGQPPRLLIYKISNRFSGVPDRFSGSGAGTDFTLKISRVEAEDVGVYYCMQATQFPHTFGQGTKLEIK
As for B1, in assay [1], the Kd came to 0.0206 nM, the koff turned out to be 5.01e-05 s⁻¹ and the kon was found to be 2.43e+06 M⁻¹ s⁻¹. Besides, the Percentage of Positive Cells in assay [2] was 47.5%.

B2: anti-SIGLEC15 antibody 10A7 (antibody, human IgG1, V domains shown)
VH: EVQLVQSGGGLVQPGGSLRLSCAASGFTFSNYEMNWVRQAPGKGLEWISYISNSGSTIYYADSVKGRFTISRDDAKNSLYLQMNSLRAEDTAVYYCAREDYDSSGYYWFDPWGQGTPVTVSS
VL: DIQLTQSPSSVSASVGDRVTITCRASQGISSWLAWYQQKPGKAPKLLIYAASSLQSGVPSRFSGSGSGTDFTLTINSLQPEDFATYYCQQTNSFPLTFGGGTKVEIK
Regarding B2, in assay [2], the Percentage of Positive Cells was 49.3%.
